# Laboratory results published in IntAct's records for PubMed 20421493.
# B1: Flagellar protein FliT (Salmonella typhimurium), P0A1N2 (parent)
# chain: MTSTVEFINRWQRIALLSQSLLELAQRGEWDLLLQQEVSYLQSIETVMEKQTPPGITRSIQDMVAGYIKQTLDNEQLLKGLLQQRLDELSSLIGQSTRQKSLNNAYGRLSGMLLVPDAPGAS
# partner: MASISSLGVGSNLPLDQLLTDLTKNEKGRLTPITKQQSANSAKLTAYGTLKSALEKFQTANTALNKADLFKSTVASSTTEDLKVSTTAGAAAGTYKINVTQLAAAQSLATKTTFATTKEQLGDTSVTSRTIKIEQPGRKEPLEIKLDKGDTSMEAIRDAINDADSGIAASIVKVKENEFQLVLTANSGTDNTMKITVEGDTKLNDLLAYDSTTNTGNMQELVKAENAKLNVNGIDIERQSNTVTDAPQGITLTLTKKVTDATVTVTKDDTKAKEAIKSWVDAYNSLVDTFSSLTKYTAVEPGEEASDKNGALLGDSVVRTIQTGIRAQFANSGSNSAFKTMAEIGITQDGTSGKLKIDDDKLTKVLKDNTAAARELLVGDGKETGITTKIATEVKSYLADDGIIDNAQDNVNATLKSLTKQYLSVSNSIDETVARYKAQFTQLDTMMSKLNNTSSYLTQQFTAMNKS
# Variants of: B1
# Settings: with flid_salty fliD
row,Variant,effect of a mutation on the interaction
1,E75A,decreasing interaction strength
2,K79A,disrupting interaction strength
